The record followed here is the supplement of paper PMC9233669.

Variants at the floor of the assay were thinned out.

The subject of one data set is biotinyl-Ile-oxazolone. The data set is described as follows: self-aminoacylation, catalytic enhancement (BIO) (fold over background); higher = more active; k-Seq, kA / k0A0; sequences stand for … in GGGAAUGGAUCCACAUCUACGAAUUC…UUCACUGCAGACUUGACGAAGCUG
The procedure, abridged: (§1)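 Mutagenized RNA pools with a 21-nt variable region (0.43 μM) reacted with each biotinyl-aminoacyl-oxazolone at 2–1250 μM. Reactions ran in 50 μL HEPES/NaCl/KCl/MgCl2/CaCl2 buffer with 5% acetonitrile, pH 6.9–7.0, for 90 minutes at room temperature. Streptavidin-captured RNA was quantified by triplicate qPCR and Illumina sequencing, and per-sequence fraction reacted was fit to a pseudo-first-order model with 1000 bootstraps. Catalytic enhancement is median kA divided by the uncatalyzed rate, the low-activity peak of a bimodal Gaussian fit.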

Another data set has as its system biotinyl-Phe-oxazolone. The data set is described as follows: self-aminoacylation, catalytic enhancement (BFO) (fold over background); higher = more active; k-Seq, kA / k0A0; sequences stand for … in GGGAAUGGAUCCACAUCUACGAAUUC…UUCACUGCAGACUUGACGAAGCUG
In short, it runs like this:
as §1

For the next data set, the system named is biotinyl-Trp-oxazolone. Briefly: self-aminoacylation, catalytic enhancement (BWO) (fold over background); higher = more active; k-Seq, kA / k0A0; sequences stand for … in GGGAAUGGAUCCACAUCUACGAAUUC…UUCACUGCAGACUUGACGAAGCUG
The procedure, abridged:
as §1

The next data set has as its system biotinyl-Met-oxazolone. Briefly: self-aminoacylation, catalytic enhancement (BMO) (fold over background); higher = more active; k-Seq, kA / k0A0; sequences stand for … in GGGAAUGGAUCCACAUCUACGAAUUC…UUCACUGCAGACUUGACGAAGCUG
In short, it runs like this: as §1

The next data set concerns biotinyl-Val-oxazolone. The data set is described as follows: self-aminoacylation, catalytic enhancement (BVO) (fold over background); higher = more active; k-Seq, kA / k0A0; sequences stand for … in GGGAAUGGAUCCACAUCUACGAAUUC…UUCACUGCAGACUUGACGAAGCUG
The procedure, abridged:
as §1

Another data set concerns biotinyl-Leu-oxazolone. Briefly: self-aminoacylation, catalytic enhancement (BLO) (fold over background); higher = more active; k-Seq, kA / k0A0; sequences stand for … in GGGAAUGGAUCCACAUCUACGAAUUC…UUCACUGCAGACUUGACGAAGCUG
In short, it runs like this: as §1

Regarding “AUGACCCAGGUCAUCGAGUGA [Fam2.1 aminoacylation ribozyme variant]”, the self-aminoacylation amounted to 2.5 in the data set on biotinyl-Ile-oxazolone; 17.9 with biotinyl-Phe-oxazolone; 5.92 in the data set with biotinyl-Trp-oxazolone; 4.72 in the data set on biotinyl-Met-oxazolone; 2.5 with biotinyl-Val-oxazolone; 5.25 in the data set on biotinyl-Leu-oxazolone.
With “AUCCACCUAGGUCAUCGGGAG [Fam2.2 aminoacylation ribozyme variant]”, the self-aminoacylation in the data set on biotinyl-Ile-oxazolone turned out to be 1.88; in the data set with biotinyl-Phe-oxazolone, 1.03; with biotinyl-Trp-oxazolone, 2.19; in the data set on biotinyl-Met-oxazolone it was 1.65; in the data set with biotinyl-Val-oxazolone, 2.17; in the data set with biotinyl-Leu-oxazolone, 1.68.
With “AUACACCUAGGUCAUCGGGUG [Fam2.2 aminoacylation ribozyme variant]”, the self-aminoacylation in the data set on biotinyl-Ile-oxazolone turned out to be 2.93; in the data set on biotinyl-Phe-oxazolone, 19.8; with biotinyl-Trp-oxazolone it was 4.29; with biotinyl-Met-oxazolone, 3.88; in the data set with biotinyl-Val-oxazolone it was 2.96; with biotinyl-Leu-oxazolone, 3.88.
Consider “CCACACUCCAAGCAGUCGGUC [Fam1B.1 aminoacylation ribozyme variant]”, for which the self-aminoacylation amounted to 1.32 with biotinyl-Ile-oxazolone; 0.733 with biotinyl-Phe-oxazolone; 1.04 in the data set with biotinyl-Trp-oxazolone; 1.04 in the data set with biotinyl-Met-oxazolone; 1.49 in the data set with biotinyl-Val-oxazolone; 1.11 with biotinyl-Leu-oxazolone.
Regarding “AUACUUCAAACAAGCGGUCUG [Fam1A.1 aminoacylation ribozyme variant]”, the self-aminoacylation with biotinyl-Ile-oxazolone was determined as 0.977; with biotinyl-Phe-oxazolone it was 0.83; in the data set with biotinyl-Trp-oxazolone, 0.889; in the data set on biotinyl-Met-oxazolone it was 0.884; with biotinyl-Val-oxazolone, 0.986; in the data set with biotinyl-Leu-oxazolone, 1.01.
Turning to “AUUGUCCUAGGUCAUCGGGUG [Fam2.2 aminoacylation ribozyme variant]”, the self-aminoacylation in the data set with biotinyl-Ile-oxazolone was 14.2; with biotinyl-Phe-oxazolone it was 200; with biotinyl-Trp-oxazolone, 27.1; in the data set with biotinyl-Met-oxazolone, 30.2; in the data set with biotinyl-Val-oxazolone, 13.6; in the data set with biotinyl-Leu-oxazolone, 39.1.
Consider “GUUACCCUGGUCUUCGAGUGA [Fam2.1 aminoacylation ribozyme variant]”, for which the self-aminoacylation in the data set with biotinyl-Ile-oxazolone stood at 4.45; in the data set with biotinyl-Phe-oxazolone, 50.7; in the data set with biotinyl-Trp-oxazolone it was 10.1; in the data set with biotinyl-Met-oxazolone, 8.47; in the data set on biotinyl-Val-oxazolone it was 5.01; with biotinyl-Leu-oxazolone, 8.79.
As to “AUUCACCAAGGUCAUCGGUUG [Fam2.2 aminoacylation ribozyme variant]”, the self-aminoacylation in the data set with biotinyl-Ile-oxazolone worked out at 1.42; in the data set with biotinyl-Phe-oxazolone it was 9.05; in the data set on biotinyl-Trp-oxazolone, 1.69; with biotinyl-Met-oxazolone, 1.55; in the data set on biotinyl-Val-oxazolone, 1.39; in the data set on biotinyl-Leu-oxazolone, 1.72.
“CUGCUUCAAACAAUCGGUCUG [Fam1A.1 aminoacylation ribozyme variant]”: the self-aminoacylation with biotinyl-Ile-oxazolone is 1.29; in the data set on biotinyl-Phe-oxazolone, 125; in the data set on biotinyl-Trp-oxazolone, 53.5; with biotinyl-Met-oxazolone, 1.72; in the data set with biotinyl-Val-oxazolone, 1.35; in the data set with biotinyl-Leu-oxazolone, 2.83.
On to “AUUACCCUGAUCUUCGAGUGA [Fam2.1 aminoacylation ribozyme variant]”, for which the self-aminoacylation came out at 2.56 with biotinyl-Ile-oxazolone; 15.7 in the data set on biotinyl-Phe-oxazolone; 6.11 with biotinyl-Trp-oxazolone; 4.57 in the data set with biotinyl-Met-oxazolone; 2.74 in the data set with biotinyl-Val-oxazolone; 5.04 in the data set with biotinyl-Leu-oxazolone.
“AAGUUAGCUUAUAGUCGCAAG [Fam3.1 aminoacylation ribozyme variant]”: the self-aminoacylation worked out at 1.8 in the data set on biotinyl-Ile-oxazolone; 2.88 in the data set on biotinyl-Phe-oxazolone; 1.9 with biotinyl-Trp-oxazolone; 1.43 in the data set on biotinyl-Met-oxazolone; 1.56 in the data set with biotinyl-Val-oxazolone; 1.48 with biotinyl-Leu-oxazolone.
Consider “CCAGACUUUAAGCAAUCGGUC [Fam1B.1 aminoacylation ribozyme variant]”, for which the self-aminoacylation in the data set with biotinyl-Ile-oxazolone is 1.11; in the data set on biotinyl-Phe-oxazolone, 1.04; with biotinyl-Trp-oxazolone, 0.821; in the data set on biotinyl-Met-oxazolone it was 0.874; in the data set with biotinyl-Val-oxazolone, 0.922; with biotinyl-Leu-oxazolone it was 0.94.
As to “AAGUUUGCGAAUCGUCGCAAG [Fam3.1 aminoacylation ribozyme variant]”, the self-aminoacylation worked out at 1.31 in the data set with biotinyl-Ile-oxazolone; 1.79 in the data set on biotinyl-Phe-oxazolone; 1 in the data set on biotinyl-Trp-oxazolone; 1.19 in the data set with biotinyl-Met-oxazolone; 1.1 with biotinyl-Val-oxazolone; 0.942 with biotinyl-Leu-oxazolone.
For “ACUCACCUAGGUCAUCGGGUU [Fam2.2 aminoacylation ribozyme variant]”, the self-aminoacylation came to 5.92 in the data set on biotinyl-Ile-oxazolone; 31.3 with biotinyl-Phe-oxazolone; 6.68 with biotinyl-Trp-oxazolone; 8.19 in the data set on biotinyl-Met-oxazolone; 5.06 in the data set on biotinyl-Val-oxazolone; 11.3 with biotinyl-Leu-oxazolone.
As for “CCACACUUCAAGCAAGCGUUC [Fam1B.1 aminoacylation ribozyme variant]”, the self-aminoacylation in the data set on biotinyl-Ile-oxazolone was determined as 0.689; in the data set on biotinyl-Phe-oxazolone it was 0.905; in the data set with biotinyl-Trp-oxazolone it was 0.492; in the data set on biotinyl-Met-oxazolone it was 0.454; with biotinyl-Val-oxazolone it was 0.728; in the data set on biotinyl-Leu-oxazolone, 0.516.
For the sequence “AAGUUUGCUAAUAGUGGGAAG [Fam3.1 aminoacylation ribozyme variant]”, the self-aminoacylation with biotinyl-Ile-oxazolone stood at 0.841; in the data set with biotinyl-Phe-oxazolone, 1.48; in the data set on biotinyl-Trp-oxazolone, 0.598; in the data set with biotinyl-Met-oxazolone, 0.971; in the data set with biotinyl-Val-oxazolone it was 1.03; in the data set on biotinyl-Leu-oxazolone, 0.876.
With “AUUUACCUAGGUCAUAGGGUG [Fam2.2 aminoacylation ribozyme variant]”, the self-aminoacylation turned out to be 1.37 in the data set with biotinyl-Ile-oxazolone; 1.34 in the data set with biotinyl-Phe-oxazolone; 1.97 with biotinyl-Trp-oxazolone; 1.58 in the data set with biotinyl-Met-oxazolone; 1.48 in the data set on biotinyl-Val-oxazolone; 1.87 in the data set on biotinyl-Leu-oxazolone.
Turning to “AUUCACUUAGGUUAUCGGGUG [Fam2.2 aminoacylation ribozyme variant]”, the self-aminoacylation in the data set with biotinyl-Ile-oxazolone came to 2.37; in the data set with biotinyl-Phe-oxazolone, 18.6; in the data set on biotinyl-Trp-oxazolone, 3.68; in the data set on biotinyl-Met-oxazolone, 3.33; in the data set with biotinyl-Val-oxazolone it was 2.5; with biotinyl-Leu-oxazolone, 4.03.
“CUGCUGCAAACAAUCGGUCUG [Fam1A.1 aminoacylation ribozyme variant]”: the self-aminoacylation stood at 1.05 in the data set on biotinyl-Ile-oxazolone; 1.81 in the data set on biotinyl-Phe-oxazolone; 1.53 in the data set with biotinyl-Trp-oxazolone; 0.995 in the data set on biotinyl-Met-oxazolone; 1.07 in the data set with biotinyl-Val-oxazolone; 1.31 in the data set on biotinyl-Leu-oxazolone.
“CUACUUUAAGCAAUCGGUCUG [Fam1A.1 aminoacylation ribozyme variant]”: the self-aminoacylation in the data set with biotinyl-Ile-oxazolone is 0.721; in the data set on biotinyl-Phe-oxazolone, 0.5; in the data set on biotinyl-Trp-oxazolone, 0.51; with biotinyl-Met-oxazolone it was 0.749; in the data set with biotinyl-Val-oxazolone, 0.685; with biotinyl-Leu-oxazolone, 0.69.
Regarding “AAUAUCCUGGUCAUCGAGUGA [Fam2.1 aminoacylation ribozyme variant]”, the self-aminoacylation in the data set on biotinyl-Ile-oxazolone is 4.6; in the data set on biotinyl-Phe-oxazolone it was 26.2; with biotinyl-Trp-oxazolone, 10.1; in the data set with biotinyl-Met-oxazolone, 8.66; in the data set with biotinyl-Val-oxazolone, 4.34; with biotinyl-Leu-oxazolone, 8.92.
